Laboratory results from the RNAGym collection of RNA variant scans (doi:10.1093/nar/gkz1192).

B1: CPEB3 Ribozyme (parent)
chain: UAACAGGGGGCCACAGCAGAAGCGUUCACGUCGCAGCCCCUGUCAGAUUCUGGUGAAUCUGCGAAUUCUGCUGUAUAUCUC

Variants of: B1
Assay: self-cleavage, relative activity (ratio to wild type); higher = more cleavage; in vitro, sequencing
Summary of the method: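 CPEB3 self-cleaving ribozyme mutant libraries were made by rounds of error-prone PCR, barcoded, and transcribed in vitro with T7 RNA polymerase for 5 hours at 37°C. Cleavage occurred during transcription and a 15 min DNase I step before EDTA stop. RNAs were reverse transcribed with template switching and Illumina-sequenced, with DNA sequencing mapping barcodes to variants. Relative activity is the variant's cleaved/total read fraction divided by wild type's (minimum 5 reads), averaged across three batches.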

Variant | self-cleavage
U54C A57U | 0.56
U54C A57G | 0.66
U54C A57C | 0.23
U54G A75U | 0.96
G55C U80A | 0.7
U54A U67C | 0.46
U54A U67G | 0.36
U54A U67A | 0.67
U54G U76C | 0.98
G55A A56U | 0.84
G55A A56G | 0.8
U54C U58C | 0.48
U54C U58A | 0.33
U54C G73A | 1.26
U54C G73U | 1.22
U54C G73C | 1.33
U54A U72C | 1.17
U54A U72G | 0.87
U54A U72A | 1.02
U54C U60G | 0.5
U54C U60A | 0.42
U54C U60C | 0.39
G55C A64G | 0.72
G55C A64U | 0.23

Variant | self-cleavage
U54C C71A | 0.39
U54C C71U | 0.72
U54G A57U | 0.25
U54G A57G | 0.43
U54C G70A | 0.43
U54C U78G | 1.07
U54C U78A | 1.03
U54C U78C | 0.97
U54G A64G | 0.6
U54G A64U | 0.28
G55C A57G | 0.37
G55A A64G | 0.61
G55A A64U | 0.25
U54G U58C | 0.39
U54G U58A | 0.2
U54C U76G | 0.98
U54C U76C | 1.06
U54C U76A | 1.17
U54G C68U | 0.68
U54C C81U | 1.17
U54C C81G | 1.3
G55A U80A | 1.15
G55A U80C | 1.09
G55A G61A | 0.39

Variant | self-cleavage
U54G U69A | 0.62
U54G U69C | 0.37
G55C U67A | 0.44
G55C U72A | 0.4
U54C A64G | 0.86
U54C A64U | 0.36
U54C A64C | 0.46
U54C G55A | 0.62
U54C G55U | 0.78
U54G A56U | 0.31
U54G A56G | 0.46
G55C G70C | 0.17
U54C A75U | 1.2
U54C A75G | 0.88
U54A U80A | 1.21
U54A U80C | 1.14
U54C U67C | 0.26
U54C U67A | 0.48
U54C U74C | 1.21
U54C U74A | 1.25
U54C U74G | 1.39
U54A U78C | 1.05
U54A U78A | 1.19
G55A U66C | 0.22

Variant | self-cleavage
G55A U60A | 0.44
G55A U60C | 0.25
G55C A77G | 1.04
U54C C68A | 0.43
U54C C68U | 1.09
U54C C68G | 0.29
U54G U72G | 0.93
U54G U72C | 1.16
U54G U72A | 0.41
U54G A65G | 0.3
G55C | 0.94
G55A | 0.84
G55U | 1.02
U54G C71A | 0.42
U54A U66G | 0.65
U54A U66C | 0.49
U54G U67G | 0.14
U54G U67A | 0.57
U54G U67C | 0.32
U54C A56C | 0.38
U54C A56U | 0.52
U54C A56G | 0.64
U54G U60C | 0.44
U54G U60A | 0.37

Variant | self-cleavage
U54G U60G | 0.42
U54G U78A | 1
U54G U78C | 0.68
U54C U66C | 0.37
U54C U66A | 0.52
U54C U66G | 0.39
G55A U58C | 0.27
U54G G63U | 1.03
U54G G63A | 0.91
G55A U69G | 0.34
G55A U69A | 0.39
G55A U69C | 0.28
G55C C62U | 0.22
G55A A57U | 0.54
G55A A57G | 0.46
G55A U72C | 0.83
G55A U72A | 0.53
U54G U80C | 0.67
G55C U78C | 0.94
G55C U78A | 0.97
G55A A65U | 0.27
U54A U69G | 0.92
U54A U69C | 0.63
U54A U69A | 0.86

Variant | self-cleavage
U54G U74C | 0.92
U54C G61A | 0.65
U54C G61C | 0.3
G55A A75G | 0.4
U54C A65G | 0.49
U54C A65U | 0.32
U54C A65C | 0.4
G55C U74G | 1.13
U54A U74G | 1.3
U54A U74A | 1.22
U54A U74C | 1.28
U54C U72C | 1.08
U54C U72G | 0.87
U54C U72A | 0.62
U54G C62U | 0.19
U54C C62U | 0.18
U54C C62G | 0.13
U54C C62A | 0.13
U54C G63U | 1.13
U54C G63C | 1.01
U54C G63A | 0.73
G55C U69C | 0.44
U54C U80A | 1.17
U54C U80C | 1.09

Variant | self-cleavage
G55A U67A | 0.28
G55A U67C | 0.22
U54C A77G | 1.07
U54C A77U | 1.07
U54C A77C | 0.87
U54G U66C | 0.28
U54C U69C | 0.52
U54C U69A | 0.57
U54C U69G | 0.43
G55A U74A | 1.18
G55A A77G | 0.96
U54A U76A | 1.13
U54A U76C | 1.04
U54G G73A | 1.17
G55A U78C | 0.75
G55A U78A | 1
U54G A77G | 0.74
U54G C79A | 1.18
U54C | 1.02
U54G | 0.77
U54C C59U | 0.68
U54C C59A | 0.3
U54C C79A | 1.18
